Publication doi:10.1101/2021.10.29.466484, “Clamping of DNA shuts the condensin neck gate” (bioRxiv, 2021)

Assays:
Smc4 = biological target: T1, Smc4 (S. cerevisiae, UniProt Q12267 1-1418); test: cryo-EM structure; condensin pentamer (Smc2, Smc4, Brn1, Ycs4, Ycg1) with 80 bp dsDNA, ADP and BeF3; separate maps of the head module and of Ycg1-DNA from one dataset; settings: both partners purified
T1 construct: Smc4, SMC subunit of budding yeast (S. cerevisiae) condensin, wild type; Only the head domain and proximal coiled coil are resolved in the maps; also called SMC4-3xStrepII
T1 sequence: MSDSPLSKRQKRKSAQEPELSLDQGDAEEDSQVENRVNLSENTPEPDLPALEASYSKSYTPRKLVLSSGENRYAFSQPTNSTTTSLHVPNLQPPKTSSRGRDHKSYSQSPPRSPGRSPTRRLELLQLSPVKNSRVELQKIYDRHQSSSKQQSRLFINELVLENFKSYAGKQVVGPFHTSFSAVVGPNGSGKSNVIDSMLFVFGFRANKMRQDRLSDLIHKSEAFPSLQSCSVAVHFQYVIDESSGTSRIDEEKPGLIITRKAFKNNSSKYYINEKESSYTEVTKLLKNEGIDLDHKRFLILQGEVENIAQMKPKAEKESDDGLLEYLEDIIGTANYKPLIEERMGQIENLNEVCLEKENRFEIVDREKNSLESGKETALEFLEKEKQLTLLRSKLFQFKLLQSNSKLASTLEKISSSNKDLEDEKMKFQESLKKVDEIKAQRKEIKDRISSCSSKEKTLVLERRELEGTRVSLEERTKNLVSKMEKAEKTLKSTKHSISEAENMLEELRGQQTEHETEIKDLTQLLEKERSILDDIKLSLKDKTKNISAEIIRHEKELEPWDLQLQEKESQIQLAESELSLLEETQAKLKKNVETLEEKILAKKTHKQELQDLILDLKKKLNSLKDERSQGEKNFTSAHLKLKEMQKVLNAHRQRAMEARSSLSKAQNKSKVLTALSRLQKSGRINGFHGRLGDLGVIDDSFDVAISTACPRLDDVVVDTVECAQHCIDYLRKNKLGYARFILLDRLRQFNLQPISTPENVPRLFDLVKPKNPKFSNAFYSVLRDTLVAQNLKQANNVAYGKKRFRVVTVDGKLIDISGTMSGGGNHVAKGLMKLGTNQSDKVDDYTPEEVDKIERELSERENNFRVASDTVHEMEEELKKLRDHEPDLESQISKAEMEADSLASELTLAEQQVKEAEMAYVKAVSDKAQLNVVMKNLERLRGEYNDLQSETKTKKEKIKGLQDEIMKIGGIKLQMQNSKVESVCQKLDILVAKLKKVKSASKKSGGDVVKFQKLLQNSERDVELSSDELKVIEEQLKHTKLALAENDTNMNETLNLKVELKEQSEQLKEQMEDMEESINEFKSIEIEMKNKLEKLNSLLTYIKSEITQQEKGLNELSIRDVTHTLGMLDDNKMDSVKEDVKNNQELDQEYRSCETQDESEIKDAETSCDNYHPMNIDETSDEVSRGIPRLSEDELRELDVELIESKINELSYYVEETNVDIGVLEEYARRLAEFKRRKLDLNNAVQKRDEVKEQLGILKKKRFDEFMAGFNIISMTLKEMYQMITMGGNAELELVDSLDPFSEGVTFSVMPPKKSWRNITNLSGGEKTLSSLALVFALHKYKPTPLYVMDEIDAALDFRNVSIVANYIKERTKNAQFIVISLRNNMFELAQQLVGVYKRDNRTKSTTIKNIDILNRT

Ycg1 = biological target: T2, Ycg1 (S. cerevisiae, UniProt Q06680 1-1035); test: as above; settings: both partners purified
T2 construct: Ycg1, HAWK subunit of budding yeast (S. cerevisiae) condensin, wild type
T2 sequence: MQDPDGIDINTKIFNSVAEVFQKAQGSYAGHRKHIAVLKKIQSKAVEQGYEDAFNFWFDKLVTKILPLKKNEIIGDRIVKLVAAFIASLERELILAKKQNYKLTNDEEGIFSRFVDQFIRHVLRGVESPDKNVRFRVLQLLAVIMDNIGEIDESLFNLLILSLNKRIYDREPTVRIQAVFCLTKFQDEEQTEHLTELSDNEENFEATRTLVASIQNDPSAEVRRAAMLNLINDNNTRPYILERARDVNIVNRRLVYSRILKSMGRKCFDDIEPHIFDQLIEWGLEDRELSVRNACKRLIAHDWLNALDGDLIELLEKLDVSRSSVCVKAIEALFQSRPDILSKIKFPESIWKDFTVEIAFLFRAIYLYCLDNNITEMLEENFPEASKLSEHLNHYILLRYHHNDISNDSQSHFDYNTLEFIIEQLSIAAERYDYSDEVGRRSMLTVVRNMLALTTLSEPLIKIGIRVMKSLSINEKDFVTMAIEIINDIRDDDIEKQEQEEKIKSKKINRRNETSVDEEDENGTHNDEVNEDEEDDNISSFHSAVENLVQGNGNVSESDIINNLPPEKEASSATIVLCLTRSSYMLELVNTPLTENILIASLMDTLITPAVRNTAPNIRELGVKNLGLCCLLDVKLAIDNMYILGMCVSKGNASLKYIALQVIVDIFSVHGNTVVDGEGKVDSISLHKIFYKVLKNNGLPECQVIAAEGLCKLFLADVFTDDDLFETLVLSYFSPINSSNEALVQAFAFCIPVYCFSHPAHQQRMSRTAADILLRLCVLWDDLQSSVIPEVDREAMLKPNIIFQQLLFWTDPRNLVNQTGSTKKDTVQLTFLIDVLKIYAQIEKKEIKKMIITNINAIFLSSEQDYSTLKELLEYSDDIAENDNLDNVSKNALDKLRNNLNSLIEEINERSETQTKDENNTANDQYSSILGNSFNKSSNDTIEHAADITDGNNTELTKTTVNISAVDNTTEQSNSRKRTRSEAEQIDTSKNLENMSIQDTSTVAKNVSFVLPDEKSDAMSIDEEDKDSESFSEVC

B1: Brn1 (natural protein, S. cerevisiae)
chain: MTTQLRYENNDDDERVEYNLFTNRSTMMANFEEWIKMATDNKINSRNSWNFALIDYFYDLDVLKDGENNINFQKASATLDGCIKIYSSRVDSVTTETGKLLSGLAQRKTNGASNGDDSNGGNGEGLGGDSDEANIEIDPLTGMPISNDPDVNNTRRRVYNRVLETTLVEFETIKMKELDQELIIDPLFKKALVDFDEGGAKSLLLNTLNIDNTARVIFDASIKDTQNVGQGKLQRKEEELIERDSLVDDENEPSQSLISTRNDSTVNDSVISAPSMEDEILSLGMDFIKFDQIAVCEISGSIEQLRNVVEDINQAKDFIENVNNRFDNFLTEEELQAAVPDNAEDDSDGFDMGMQQELCYPDENHDNTSHDEQDDDNVNSTTGSIFEKDLMAYFDENLNRNWRGREHWKVRNFKKANLVNKESDLLEETRTTIGDTTDKNTTDDKSMDTKKKHKQKKVLEIDFFKTDDSFEDKVFASKGRTKIDMPIKNRKNDTHYLLPDDFHFSTDRITRLFIKPGQKMSLFSHRKHTRGDVSSGLFEKSTVSANHSNNDIPTIADEHFWADNYERKEQEEKEKEQSKEVGDVVGGALDNPFEDDMDGVDFNQAFEGTDDNEEASVKLDLQDDEDHKFPIRENKVTYSRVSKKVDVRRLKKNVWRSINNLIQEHDSRKNREQSSNDSETHTEDESTKELKFSDIIQGISKMYSDDTLKDISTSFCFICLLHLANEHGLQITHTENYNDLIVNYEDLATTQAAS
notes: Brn1, kleisin subunit of budding yeast (S. cerevisiae) condensin, wild type; also called kleisin Brn1; BRN1-HA3-His12
- binding result (Smc4): binds
- binding result (Ycg1): binds
